These results are taken from patent US20190153078A1 (Sanofi, published 2019).

The chains are these.
B1: A4 antibody (antibody, V domains shown)
VH: QVHLVESGGGVVQPGRSLRLSCATFGLNFSDYGFHWVRQAPGKGLEWVAVTSYDGSNKYYAEFVKGRFTISRDNYKNTVYLQMNSLRLEDTAVYYCARDLAPYNFWSGYGNNWFDPWGQGTLVTVSS
VL: EIVLTQSPGTLSLSPGERATLSCRASQSVTGTSLAWFQQKPGQAPRLLIYGASSRATGIPDRFSGSGSGTDFTLTISRLEPEDFAVYYCQQYGSSPRLTFGGGTKVEIKR
B2: A2 antibody (antibody, V domains shown)
VH: QVQLQESGPGLVKPSETLSLTCTVSGGSISTYYWSWIRQSPGKGLEWMGYIYYSGSTNYNPSLESRVTIAVDTSKNQFSLQLTSVTAADTAVYYCARGAAEWLRFRGFFDSWGQGTLVTVSS
VL: ENVLTQSPGTLSLSPGERATLSCRASHSVTNNFLAWYQQKPGQAPRLLIYGVSSRATGIPDRFSGSGSGTDFTLTISRLEPEDFAVYYCQQYGVSGTFGQGTKLEIKR
B3: B6 antibody (antibody, V domains shown)
VH: EVQLVESGGGLVQPGGSLRLSCAASGFTFTTSTMNWVRQAPGKGLEWVSYITRTSTVIYYADSVKGRFTISRDNAKNSLYLQMSSLRAEDTAVYYCARGVRDIGGNGFDYWGQGTLVTVSS
VL: B1 VL with G31S, T32S, S33Y, F37Y, P41T, S77A, R97P, L98Y, G102Q, V106L
B4: B3 antibody (antibody, V domains shown)
VH: EVQLVESGGGLVQPGGSLRLSCSASGFTFRSYWMHWVRQVPGKGLVWVSCINKEGSSTTYADSVKGRFTISRDNAKNTLYLQMNSLRADDTAVYYCLRGYDVDYWGQGTLVTVSS
VL: QAVLTQPSSLSASPGASVSLTCTLRSGVNVGSYRIYWYQQKPGSPPRYLLRYKSGLDKHQGSGVPSRFSGSKDDSANAGILFISGLQSENDADYYCLIWHNSAVVFGGGTKLTVLG
B5: B1 antibody (antibody, V domains shown)
VH: B4 VH with S23A, Q82E
VL: B4 VL with V28I, S32T, N90D, D91E, N101S
B6: A3 antibody (antibody, V domains shown)
VH: MQLLESGGGLVKPGGSLRLSCAASGFTFSNAWMSWVRQGPGKGLEWVGRIKSKTDGGTTDYAAPVKGRFSISRNDSNNTLFLQMNSLKTEDTAVYYCTTGPQIVVVAGATSRDQPNYYYYGLDVWGLGTTVTVSS
VL: QSVLTQPPSASGTPGQRVTISCSGSSSNIGINTVNWYQQLPGTAPKLLIYKSNLRPSGVPDRFSGSKSGTSASLAISGLRSEDEADYYCAAWDDSLTGLYVFGTGTKVTVLG
B7: A5 antibody (antibody, V domains shown)
VH: B1 VH
VL: EIVMTQSPATLSVSPGERATLSCRASQSISSNLAWYQQKPGQAPRLLIYDASTRATGIPARFSGSGSGTEFTLTISSLQSEDFAVYYCQQYNDWLVTFGQGTKVEIKR
B8: A1 antibody (antibody, V domains shown)
VH: QVHLQESGPGLVKPSETLSLTCTVSGDSISTYYWSWIRQPPGKGLEWIGYVYYTGSTNYSPSLEGRVTLSVDTSKNQFSLKLNSVSAADTAVYYCARGAAEWLRFRGFFDYWGQGILVSVSS
VL: B2 VL with N2V, H27Q, N32G, L47V, V52A, V86M, V94L
B9: B5 antibody (antibody, V domains shown)
VH: QVHLQESGPGLVKPSGTLSLTCAVSGGSISYTNWWSWVRLPPGKGLEWIGEIYHSRSTNYNPSLKSRVTMSIDKSKNLFSLKLNSVTAADTAIYYCAKAAYTRDGIQPFDNWGQGTLVTVSS
VL: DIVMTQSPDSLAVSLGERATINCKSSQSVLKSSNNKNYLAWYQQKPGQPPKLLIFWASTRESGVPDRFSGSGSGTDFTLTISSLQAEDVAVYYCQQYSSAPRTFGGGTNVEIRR
B10: B4 antibody (antibody, V domains shown)
VH: EVQLVESGGGLVKPGGSLRVSCAASGFTFSSYSMNWIRQAPGKGLEWVSSISSNSSYIYYADSVKGRFTISRDNAKNSLYLQMNSLRAEDTAVYYCARDRDYSNYLTAWGQGTLVTVSS
VL: QSVLTQPPSVSGAPGQRVTISCTGSSSNIGAGYDVHWYRQLPGTAPKLLIYGKNNRPSGVPNRFSGSKSGTSASLAITGLQAEDEADYYCQSYDSSLSGSVFGGGTKLTVLG

Positions count from the first letter of the chain named.

For one experiment, the target named is T1, C. difficile toxin A from strain VPI10463 (ATCC 43255), toxinotype 0 (Clostridium difficile, UniProt P16154 1-2710).
Test: not given
For orientation: Kd means the free concentration of one partner at which half of the binding sites on the other are occupied at equilibrium, for simple one-to-one binding. High values mean lower affinity, low ones higher affinity. The molecule B1 returned a dissociation constant Kd of less than 10 pM.
Still for that read-out and setting: under B2 stands less than 10 pM.

Another experiment addresses T2, C. difficile toxin B from strain VPI10463 (ATCC 43255), toxinotype 0 (Clostridium difficile, UniProt P18177 2-2366).
Test: not given
The molecule B3 had a Kd of less than 10 pM.

The next experiment concerns the target T3, WT Toxin B MLD (1-91) + LPETGG + 6X HIS (Clostridium difficile). Nature of the experiment: BLI (Octet RED96). (Biolayer interferometry detects binding as a change in optical thickness at a sensor tip.)
In the case of B4, the binding result is given as “no binding”.

Another experiment concerns the target Mutant Toxin B MLD (1-91) + LPETGG + 6X HIS (Clostridium difficile). Description: BLI (Octet RED96).
Regarding B5, the binding result is “no binding”.
Same read-out and setting: then B4, with “no binding”.

The target in the next experiment is T1, C. difficile toxin A from strain …. Description: cell-based or functional assay.
For B6, the “% completion cytotox (Vero cells)” value worked out at 90% and the “Cytotox NT50, pM (Vero cells)” value amounted to 980 pM.
The like results for B1 were, in that order, less than 90% and 3400 pM.
As for B7, the “% completion cytotox (Vero cells)” value is 75% and the “Cytotox NT50, pM (Vero cells)” value was 2700 pM.
In the same order, the values of B8 are less than 90% and 48 pM.
The like results for B2 were, in that order, 100% and 55 pM.

The next experiment deals with T2, C. difficile toxin B from strain …. Description: cell-based or functional assay.
B5: the “% completion cytotox (Vero cells)” value was 95% and the “Cytotox NT50, pM (Vero cells)” value is 49 pM.
The like results for B4 were, in that order, 100% and 100 pM.
With B9, the “% completion cytotox (Vero cells)” value was 95% and the “Cytotox NT50, pM (Vero cells)” value is 2900 pM.

The next experiment concerns the target T1, C. difficile toxin A from strain …. Description: cell-based or functional assay. The source holds these as a separate data set.
With B6, the “% completion TEER (T-84 cells)” value amounted to 80% and the “TEER NT50, nM (T-84 cells)” value was 1.3 nM.
For the molecule B1, the “TEER NT50, nM (T-84 cells)” value amounted to 4.7 nM.
Same read-out and setting: under B7 stands 7.3 nM.
B8: the “% completion TEER (T-84 cells)” value was determined as 80% and the “TEER NT50, nM (T-84 cells)” value is less than 1.3 nM.
As for B2, the “% completion TEER (T-84 cells)” value came out at 75% and the “TEER NT50, nM (T-84 cells)” value stood at 1.8 nM.

The next experiment addresses T2, C. difficile toxin B from strain …. Description: cell-based or functional assay. The source holds these as a separate data set.
As for B10, the “% completion TEER (T-84 cells)” value worked out at 93% and the “TEER NT50 (T-84 cells)” value worked out at 130.
As for B3, the “% completion TEER (T-84 cells)” value worked out at 92% and the “TEER NT50 (T-84 cells)” value turned out to be 100.
In the same order, the values of B5 are 91% and 270.
In the same order, the values of B4 are 95% and 600.
In the same order, the values of B9 are 70% and 200.

The target in the next experiment is T3, WT Toxin B MLD (1-91) + LPETGG + 6X HIS. Nature of the experiment: Western, dot blot, Octet (summary).
Consider B5, for which the binding result was “no binding”.

For a further experiment, the target named is T1, C. difficile toxin A from strain …. Description: BLI (Octet Red96), antibody on Protein A sensor, toxin in solution.
Broadly, the koff is the first-order rate constant of dissociation. What is called kon is a measure of how fast the partners come together. Consider B6, for which the Kd came out at 461 pM, the koff was 7.77e-05 s⁻¹ and the kon was 169000 M⁻¹ s⁻¹.
The like results for B1 were, in that order, 0.557 pM, 3.09e-07 s⁻¹ and 555000 M⁻¹ s⁻¹.
In the same order, the values of B7 are 144 pM, 4.49e-05 s⁻¹ and 312000 M⁻¹ s⁻¹.
In the same order, the values of B8 are less than 10 pM, less than 3.75e-06 s⁻¹ and 375000 M⁻¹ s⁻¹.
The molecule B2 showed a Kd of 4.43 pM, a koff of 1.58e-06 s⁻¹ and an association rate constant (kon) of 356000 M⁻¹ s⁻¹.

The target in the next experiment is T2, C. difficile toxin B from strain …. Described as above.
In turn, B10 yielded a Kd of 121 pM, an off-rate (koff) of 6.44e-05 s⁻¹ and an association rate constant (kon) of 531000 M⁻¹ s⁻¹.
The like results for B3 were, in that order, 0.726 pM, 5.3e-07 s⁻¹ and 730000 M⁻¹ s⁻¹.
For the molecule B5, the Kd came out at 47.7 pM, the koff is 2.79e-05 s⁻¹ and the on-rate (kon) turned out to be 585000 M⁻¹ s⁻¹.
In the same order, the values of B4 are 487 pM, 9.4e-05 s⁻¹ and 193000 M⁻¹ s⁻¹.
In the same order, the values of B9 are 202 pM, 9.62e-05 s⁻¹ and 477000 M⁻¹ s⁻¹.
